Where no end group is shown, it is not given here.

The term stoichiometry N denotes a count of units in the complex or per binding partner.

First the molecules themselves.
B1: LptD (natural protein, Escherichia coli, UniProt P31554 25-784, looked up)
chain: ADLASQCMLGVPSYDRPLVQGDTNDLPVTINADHAKGDYPDDAVFTGSVDIMQGNSRLQADEVQLHQKEAPGQPEPVRTVDALGNVHYDDNQVILKGPKGWANLNTKDTNVWEGDYQMVGRQGRGKADLMKQRGENRYTILDNGSFTSCLPGSDTWSVVGSEIIHDREEQVAEIWNARFKVGPVPIFYSPYLQLPVGDKRRSGFLIPNAKYTTTNYFEFYLPYYWNIAPNMDATITPHYMHRRGNIMWENEFRYLSQAGAGLMELDYLPSDKVYEDEHPNDDSSRRWLFYWNHSGVMDQVWRFNVDYTKVSDPSYFNDFDNKYGSSTDGYATQKFSVGYAVQNFNATVSTKQFQVFSEQNTSSYSAEPQLDVNYYQNDVGPFDTRIYGQAVHFVNTRDDMPEATRVHLEPTINLPLSNNWGSINTEAKLLATHYQQTNLDWYNSRNTTKLDESVNRVMPQFKVDGKMVFERDMEMLAPGYTQTLEPRAQYLYVPYRDQSDIYNYDSSLLQSDYSGLFRDRTYGGLDRIASANQVTTGVTSRIYDDAAVERFNISVGQIYYFTESRTGDDNITWENDDKTGSLVWAGDTYWRISERWGLRGGIQYDTRLDNVATSNSSIEYRRDEDRLVQLNYRYASPEYIQATLPKYYSTAEQYKNGISQVGAVASWPIADRWSIVGAYYYDTNANKQADSMLGVQYSSCCYAIRVGYERKLNGWDNDKQHAVYDNAIGFNIELRGLSSNYGLGTQEMLRSNILPYQNTL
notes: LptD, E. coli, UniProt P31554; mature protein (theoretical mass 87,080 Da); Untagged; Cysteines at 31, 173, 724 and 725 (C1 to C4); the mature oxidized form LptD^Ox has the disulfides C1-C3 and C2-C4; samples from ΔlptM cells also hold partially oxidized forms; also called LptD^CCCC; wild-type LptD; source: E. coli BW25113 (wild-type or ΔlptM), overproduced from pLptDE^His or pLptDEM^His; …
B3: LptM^His (natural protein, Escherichia coli, UniProt P0ADN6 20-67, looked up)
chain: CGLKGPLYFPPADKNAPPPTKPVETQTQSTVPDKNDRATGDGPSQVNY
modifications: also: tri-acylated
notes: LptM (formerly YifL), E. coli, UniProt P0ADN6; mature and tri-acylated lipoprotein (theoretical mass with the tag 6,988 Da); also called C-terminally poly-histidine tagged version of E. coli LptM; YifL; source: E. coli BW25113 ΔlptM, overproduced from pLptDEM^His or pLptM^His; DDM-solubilized envelope fraction; not shown: poly-histidine, C-terminal, kept
B4: LptE (natural protein)
chain: not shown
modifications: tri-acylated (mature and tri-acylated protein)
notes: LptE, E. coli, UniProt P0ADC1; mature and tri-acylated lipoprotein (theoretical mass 20,248 Da); Untagged; source: E. coli BW25113 ΔlptM, overproduced from pLptDEM^His; DDM-solubilized envelope fraction

The experiment “LptM^His” deals with B3. The experiment is described as follows: native MS; co-expressed and Ni-affinity co-purified complexes LptDE^His and LptDEM^His, ~10-20 μM in 200 mM ammonium acetate pH 7.4, 0.03% DDM; nano-electrospray, positive ion mode. Particulars: both partners purified.
Experiment [1] addresses B4. The experiment is described as above. The note with it: both partners purified.
The target of experiment [2] is B1. The experiment in a line: pull-down; Ni-affinity purification of LptE^His from the DDM-solubilized envelope fraction of wild-type (lptM^+) cells with pLptDE^His; Ni-NTA 2 h at 4 °C, 50 mM Tris-HCl pH 8, 150 mM NaCl, DDM; SDS-PAGE or BN-PAGE, Coomassie staining or Western blotting. Particulars: partners not purified. Background: A western blot detects proteins with antibodies after separation by electrophoresis.

The target of experiment [3] is B1. The experiment in a line: HDX-MS; LPS translocon produced in the presence or absence of LptM, purified in detergent micelles; 20 μM protein diluted in deuterated buffer (20 mM MES pH 6.5, 200 mM NaCl), 20 °C, 0.5 to 30 min; pepsin digestion. Particulars: both partners purified.
Experiment [4] has as its target B4. The experiment is described as above. Particulars: both partners purified.

Consider B1, for which the “stoichiometry N” value with LptM^His and with LptE [1] was 1 throughout.

B2: LptE^His (natural protein)
chain: not shown
modifications: tri-acylated (mature and tri-acylated protein)
notes: LptE, E. coli, UniProt P0ADC1; mature and tri-acylated lipoprotein (theoretical mass with the tag 21,348 Da); also called C-terminally poly-histidine tagged variant of LptE; source: E. coli BW25113 (wild-type or ΔlptM), overproduced from pLptDE^His or pLptDME^His; DDM-solubilized envelope fraction; not shown: poly-histidine, C-terminal, kept
Turning to B2, the binding result with LptD [2] is recorded as “binds”.
Turning to B3, the binding result with LptD [3] and in the experiment with LptE [4] was “binds” each time.
Consider B4, for which the “stoichiometry N” value in the experiment with LptM^His is 1.
